Publication PMC10577314 (Frontiers in Cell and Developmental Biology, 2023)
One block for each binder: values may come before it.

Molecular target: T1, C-terminal half of Sec8 (Sec8c, aa544–975) (rat, UniProt Q62824 544-975)
T1 construct: Sec8 (exocyst subunit), Rattus norvegicus, C-terminal half, aa544–975; ends with the ITTV motif; Used in ITC and SEC under the plain name Sec8c; source: E. coli BL21-DE3, purified (Ni-HiTrap HP; Superdex 200)
Test: ITC; 300 µM SAP102 truncation in the syringe titrated into 30 µM Sec8c (or Sec8c-Δ958–971) in the cell; 20 mM HEPES pH 7.5, 100 mM NaCl, 1 mM DTT; one-set-of-sites model; control titration (protein to buffer) subtracted
Conditions: both partners purified

T1 sequence (Q62824 544-975): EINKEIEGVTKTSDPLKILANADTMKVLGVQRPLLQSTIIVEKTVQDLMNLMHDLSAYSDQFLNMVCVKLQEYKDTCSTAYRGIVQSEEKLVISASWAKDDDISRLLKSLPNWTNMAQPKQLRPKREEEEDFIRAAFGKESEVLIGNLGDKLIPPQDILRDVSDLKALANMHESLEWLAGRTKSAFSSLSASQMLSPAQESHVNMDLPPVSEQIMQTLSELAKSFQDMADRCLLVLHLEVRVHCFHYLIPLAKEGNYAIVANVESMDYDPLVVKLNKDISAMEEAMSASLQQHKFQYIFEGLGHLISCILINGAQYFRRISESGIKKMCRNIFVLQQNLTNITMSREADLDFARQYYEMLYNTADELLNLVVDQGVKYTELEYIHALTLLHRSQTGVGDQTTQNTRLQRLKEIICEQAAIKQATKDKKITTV

Kd: ~4 µM
B1: SAP102 PDZ2 (aa241–331) (domain or fragment, rat, UniProt Q62936 241-331, looked up)
chain: TIMEVNLLKGPKGLGFSIAGGIGNQHIPGDNSIYITKIIEGGAAQKDGRLQIGDRLLAVNNTNLQDVRHEEAVASLKNTSDMVYLKVAKPG
notes: source: E. coli BL21-DE3, purified (Ni-HiTrap HP, SENP2 cleavage, Superdex 200); not shown: His6-SUMO, N-terminal, cleaved

Kd: ~6 µM
B2: SAP102 PDZ1-PDZ2 (aa144–331) (domain or fragment, rat, UniProt Q62936 144-331, looked up)
chain: MFKYEEIVLERGNSGLGFSIAGGIDNPHVPDDPGIFITKIIPGGAAAMDGRLGVNDCVLRVNEVDVSEVVHSRAVEALKEAGPVVRLVVRRRQPPPETIMEVNLLKGPKGLGFSIAGGIGNQHIPGDNSIYITKIIEGGAAQKDGRLQIGDRLLAVNNTNLQDVRHEEAVASLKNTSDMVYLKVAKPG
notes: also called tandem PDZ1-PDZ2; source: E. coli BL21-DE3, purified (Ni-HiTrap HP, SENP2 cleavage, Superdex 200); not shown: His6-SUMO, N-terminal, cleaved
